Among the data in PMC3607249 are stoichiometry N values, retold here.

The assay deals with Sulfolobus islandicus Orc1-1 Walker B mutant E147A (ATP-bound) (Sulfolobus islandicus). The assay can be described thus: AUC.

The stoichiometry N is a count of units in the complex or per binding partner.

As to “Sulfolobus islandicus Orc1-1 Walker B mutant E147A (ATP-bound) (natural protein)”, the stoichiometry N is 2.
